# Where a chain is given by its changes, count along the chain named.
# B1: caN-HCA-kLC (antibody)
# heavy: EVQLVESGGDLVNPGGTLTLSCVVSGFSLTNNNVNWVRQALGRGLEWVGGVWAGGATDYNSALKSRLTITRDTSKSTVFLKMHSLQSEDTATYYCARDGGYSSSTLYAMDAWGQGTLVTVSSASTTAPSVFPLAPSCGSTSGSTVALACLVSGYFPEPVTVSWNSGSLTSGVHTFPSVLQSSGLHSLSSMVTVPSSRWPSETFTCNVVHPASNTKVDKPVFNECRCTDTPPCPVPEPLGGPSVLIFPPKPKDILRITRTPEVTCVVLDLGREDPEVQISWFVDGKEVHTAKTQSREQQFNGTYRVVSVLPIEHQDWLTGKEFKCRVNHIDLPSPIERTISKARGRAHKPSVYVLPPSPKELSSSDTVSITCLIKDFYPPDIDVEWQSNGQQEPERKHRMTPPQLDEDGSYFLYSKLSVDKSRWQQGDPFTCAVMHETLQNHYTDLSLSHSPGK
# light: DIQMTQSPASLSLSQEEKVTITCRASEDIYNALAWYQQKPGQAPKLLIYNTDTLHTGVPSRFSGSGSGTEYSLTINSLESEDVAVYFCQHYFHYPRTFGAGTKVELKRNDAQPAVYLFQPSPDQLHTGSASVVCLLNSFYPKDINVKWKVDGVIQDTGIQESVTEQDKDSTYSLSSTLTMSSTEYLSHELYSCEITHKSLPSTLIKSFQRSECQRVD
# notes: Caninised aD11 VH joined to canine HCA (caIgG-A) constant domain; caninised aD11 VL joined to canine kappa constant domain; also called caninised anti-NGF antibody, HCA isotype; anti-canine NGF antibody (HCA isotype)
# B2: caN-HCC-kLC (antibody)
# heavy: EVQLVESGGDLVNPGGTLTLSCVVSGFSLTNNNVNWVRQALGRGLEWVGGVWAGGATDYNSALKSRLTITRDTSKSTVFLKMHSLQSEDTATYYCARDGGYSSSTLYAMDAWGQGTLVTVSSASTTAPSVFPLAPSCGSQSGSTVALACLVSGYIPEPVTVSWNSVSLTSGVHTFPSVLQSSGLYSLSSMVTVPSSRWPSETFTCNVAHPATNTKVDKPVAKECECKCNCNNCPCPGCGLLGGPSVFIFPPKPKDILVTARTPTVTCVVVDLDPENPEVQISWFVDSKQVQTANTQPREEQSNGTYRVVSVLPIGHQDWLSGKQFKCKVNNKALPSPIEEIISKTPGQAHQPNVYVLPPSRDEMSKNTVTLTCLVKDFFPPEIDVEWQSNGQQEPESKYRMTPPQLDEDGSYFLYSKLSVDKSRWQRGDTFICAVMHEALHNHYTQISLSHSPGK
# light: B1 light
# notes: Caninised aD11 VH joined to canine HCC (caIgG-C) constant domain; canine kappa light chain; CHO supernatant; also called caninised anti-NGF antibody, HCC isotype
# B3: caN-HCB-kLC (antibody)
# heavy: EVQLVESGGDLVNPGGTLTLSCVVSGFSLTNNNVNWVRQALGRGLEWVGGVWAGGATDYNSALKSRLTITRDTSKSTVFLKMHSLQSEDTATYYCARDGGYSSSTLYAMDAWGQGTLVTVSSASTTAPSVFPLAPSCGSTSGSTVALACLVSGYFPEPVTVSWNSGSLTSGVHTFPSVLQSSGLYSLSSMVTVPSSRWPSETFTCNVAHPASKTKVDKPVPKRENGRVPRPPDCPKCPAPEMLGGPSVFIFPPKPKDTLLIARTPEVTCVVVDLDPEDPEVQISWFVDGKQMQTAKTQPREEQFNGTYRVVSVLPIGHQDWLKGKQFTCKVNNKALPSPIERTISKARGQAHQPSVYVLPPSREELSKNTVSLTCLIKDFYPPDIDVEWQSNGQQEPESKYRTTPPQLDEDGSYFLYSKLSVDKSRWQRGDTFICAVMHEALHNHYTQESLSHSPGK
# light: B1 light
# notes: Caninised aD11 VH joined to canine HCB (caIgG-B) constant domain; canine kappa light chain; CHO supernatant; also called caninised anti-NGF antibody, HCB isotype
# B4: caN-HCD-kLC (antibody)
# heavy: EVQLVESGGDLVNPGGTLTLSCVVSGFSLTNNNVNWVRQALGRGLEWVGGVWAGGATDYNSALKSRLTITRDTSKSTVFLKMHSLQSEDTATYYCARDGGYSSSTLYAMDAWGQGTLVTVSSASTTAPSVFPLAPSCGSTSGSTVALACLVSGYFPEPVTVSWNSGSLTSGVHTFPSVLQSSGLYSLSSTVTVPSSRWPSETFTCNVVHPASNTKVDKPVPKESTCKCISPCPVPESLGGPSVFIFPPKPKDILRITRTPEITCVVLDLGREDPEVQISWFVDGKEVHTAKTQPREQQFNSTYRVVSVLPIEHQDWLTGKEFKCRVNHIGLPSPIERTISKARGQAHQPSVYVLPPSPKELSSSDTVTLTCLIKDFYPPEIDVEWQSNGQPEPESKYHTTAPQLDEDGSYFLYSKLSVDKSRWQQGDTFTCAVMHEALQNHYTDLSLSHSPGK
# light: B1 light
# notes: Caninised aD11 VH joined to canine HCD (caIgG-D) constant domain; canine kappa light chain; CHO supernatant; also called caninised anti-NGF antibody, HCD isotype
# B5: anti-NGF MAb with aglycosyl HCB heavy chain (HCB*) (antibody)
# heavy: B3 heavy with N305A
# light: B1 light
# notes: also called aglycosylated HCB*; aglycosyl HCB* isotype anti-NGF antibody
# B6: anti-NGF MAb with aglycosyl HCC heavy chain (HCC*) (antibody)
# heavy: B2 heavy with N303A
# light: B1 light
# Key:
# [1] = biological target: NGF (TF-1 cell proliferation assay); assay: cell-based or functional assay
# mouse NGF [2] = biological target: T1, mouse NGF (mouse, UniProt P01139 122-241); assay: ELISA, CHO supernatant on murine NGF
# T1 construct: also called murine NGF
# complement C1q [3] = biological target: T2, complement C1q (human, UniProt P02745 23-245; P02746 28-253; P02747 29-245); assay: C1q ELISA, antibody captured on mouse NGF coated plates
# T2 construct: Supplied as human serum diluted 1/100; detected with sheep anti-C1q-HRP
# mouse NGF [4] = biological target: T1, mouse NGF; assay: binding ELISA to mouse NGF, CHO supernatants
# complement C1q [5] = biological target: T2, complement C1q; assay: C1q ELISA, antibody captured on mouse NGF, human serum 1/100
# complement C1q [6] = biological target: T2, complement C1q; assay: C1q ELISA, antibody captured on NGF coated plates
# complement C1q [7] = biological target: T2, complement C1q; assay: C1q ELISA, antibody captured on NGF
# T2 sequence (P02745 23-245 limits assumed, chain 1 of 3): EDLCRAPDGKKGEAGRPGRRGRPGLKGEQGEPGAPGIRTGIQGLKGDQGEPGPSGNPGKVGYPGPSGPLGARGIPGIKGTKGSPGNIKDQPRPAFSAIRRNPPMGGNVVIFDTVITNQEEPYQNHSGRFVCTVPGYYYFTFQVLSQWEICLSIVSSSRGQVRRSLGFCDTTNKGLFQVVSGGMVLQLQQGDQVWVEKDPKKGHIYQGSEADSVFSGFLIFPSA
# T2 sequence (P02746 28-253 limits assumed, chain 2 of 3): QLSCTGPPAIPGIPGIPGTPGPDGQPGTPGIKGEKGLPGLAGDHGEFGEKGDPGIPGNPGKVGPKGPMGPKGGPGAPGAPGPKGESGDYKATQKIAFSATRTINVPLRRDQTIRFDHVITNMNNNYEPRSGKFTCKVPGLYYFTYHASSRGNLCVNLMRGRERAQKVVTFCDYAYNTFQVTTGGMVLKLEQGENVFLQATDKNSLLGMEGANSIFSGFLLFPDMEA
# T2 sequence (P02747 29-245 limits assumed, chain 3 of 3): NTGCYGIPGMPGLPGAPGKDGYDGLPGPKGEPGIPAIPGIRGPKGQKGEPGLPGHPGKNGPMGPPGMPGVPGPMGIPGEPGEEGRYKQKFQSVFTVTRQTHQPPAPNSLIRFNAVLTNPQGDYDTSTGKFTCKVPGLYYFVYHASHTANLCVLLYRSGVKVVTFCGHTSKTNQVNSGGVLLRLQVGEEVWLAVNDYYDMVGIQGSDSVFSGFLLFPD
# T1 sequence (P01139 122-241 limits assumed): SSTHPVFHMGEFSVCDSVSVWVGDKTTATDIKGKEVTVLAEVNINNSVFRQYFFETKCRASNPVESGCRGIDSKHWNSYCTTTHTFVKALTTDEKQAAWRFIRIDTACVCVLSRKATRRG
# Chain of NGF (TF-1 cell proliferation assay) (P01138 122-241): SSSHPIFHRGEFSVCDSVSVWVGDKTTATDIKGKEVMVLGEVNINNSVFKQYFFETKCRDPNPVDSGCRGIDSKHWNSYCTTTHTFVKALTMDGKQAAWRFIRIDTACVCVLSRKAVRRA
Binder,binding result (mouse NGF [2]),binding result (complement C1q [3]),binding result (mouse NGF [4]),binding result (complement C1q [5]),further results
B1,binds,no binding (tested: human serum diluted 1/100),,,"IC50, TF-1 NGF neutralisation assay [1]: 0.013 nM"
B2,,,binds,binds,
B3,,,binds,binds,
B4,binds,no binding (tested: human serum diluted 1/100),,,
B5,,,binds,,binding result (complement C1q [6]): no binding (tested: human serum diluted 1/100)
B6,,,binds,,binding result (complement C1q [7]): binds

# From patent US20140170137A1 (NVIP, published 2014)
